{"source": "the RNAGym collection of RNA variant scans (doi:10.7554/elife.80360)", "parents": {"B1": {"name": "Hairpin Ribozyme (parent)", "chain": "GUCCUCUUUCACGUGCGCGUGAAAGAGAGAAGUGAACCAGAGAAACACACGUUGUGGUAUAUUACCUGGUA"}}, "data": [{"variants_of": "B1", "assay": "self-cleavage, relative activity (ratio to wild type); higher = more cleavage; co-transcriptional", "values": [{"variant": "U5A G32U", "self-cleavage": 0.153}, {"variant": "C6A A59G", "self-cleavage": 0.178}, {"variant": "C6A G34C", "self-cleavage": 1.08}, {"variant": "C6A A26U", "self-cleavage": 0.364}, {"variant": "C6A A26G", "self-cleavage": 0.281}, {"variant": "C6G A36U", "self-cleavage": 0.215}, {"variant": "U5C C37G", "self-cleavage": 0.205}, {"variant": "C4U U9C", "self-cleavage": 0.22}, {"variant": "U5C A44U", "self-cleavage": 0.0797}, {"variant": "U5G U70G", "self-cleavage": 0.354}, {"variant": "C6G C18U", "self-cleavage": 0.613}, {"variant": "C6G C18A", "self-cleavage": 0.645}, {"variant": "C6G C18G", "self-cleavage": 0.395}, {"variant": "C6A G19A", "self-cleavage": 0.599}, {"variant": "C6A U14A", "self-cleavage": 0.612}, {"variant": "U5A A45C", "self-cleavage": 0.161}, {"variant": "U5A G13A", "self-cleavage": 0.139}, {"variant": "U5A A64G", "self-cleavage": 0.154}, {"variant": "U5A A59G", "self-cleavage": 0.213}, {"variant": "U5A A35G", "self-cleavage": 0.559}, {"variant": "U5A A35U", "self-cleavage": 0.295}, {"variant": "U5G A24U", "self-cleavage": 0.235}, {"variant": "U5G G34C", "self-cleavage": 0.886}, {"variant": "U5G G34A", "self-cleavage": 0.603}, {"variant": "U5C A71C", "self-cleavage": 1.16}, {"variant": "U5A G42U", "self-cleavage": 0.275}, {"variant": "U5A G42C", "self-cleavage": 0.106}, {"variant": "U5G A30U", "self-cleavage": 0}, {"variant": "U5G A30C", "self-cleavage": 0.0771}, {"variant": "U5C A30G", "self-cleavage": 0.111}, {"variant": "U5C A30C", "self-cleavage": 0.154}, {"variant": "C6A U33G", "self-cleavage": 0.149}, {"variant": "C6G A59C", "self-cleavage": 0.0783}, {"variant": "C6G A59G", "self-cleavage": 0.121}, {"variant": "U5C G42A", "self-cleavage": 0.133}, {"variant": "U5A C46G", "self-cleavage": 0.232}, {"variant": "U5G U8A", "self-cleavage": 0.126}, {"variant": "C6A U53G", "self-cleavage": 0.422}, {"variant": "C4U U58G", "self-cleavage": 0.218}, {"variant": "U5G G21C", "self-cleavage": 0.177}, {"variant": "U5C G19U", "self-cleavage": 0.565}, {"variant": "U5C G19C", "self-cleavage": 0.435}, {"variant": "U5C U63C", "self-cleavage": 0.286}, {"variant": "U5G G25U", "self-cleavage": 0.306}, {"variant": "U5G A39C", "self-cleavage": 0.129}, {"variant": "U5G A39U", "self-cleavage": 0.11}, {"variant": "U5G C16G", "self-cleavage": 0.146}, {"variant": "U5G C16U", "self-cleavage": 0.269}, {"variant": "U5C U8G", "self-cleavage": 0.429}, {"variant": "C4U G34A", "self-cleavage": 0.688}, {"variant": "C6A G56C", "self-cleavage": 0.128}, {"variant": "C6A G54U", "self-cleavage": 0.379}, {"variant": "C6A G54A", "self-cleavage": 0.342}, {"variant": "C6A A22G", "self-cleavage": 0.453}, {"variant": "C6G A47C", "self-cleavage": 0.235}, {"variant": "U5A A31C", "self-cleavage": 0.156}, {"variant": "U5A A31G", "self-cleavage": 0.212}, {"variant": "U5G U20A", "self-cleavage": 0.279}, {"variant": "U5G U20G", "self-cleavage": 0.238}, {"variant": "U5G U63A", "self-cleavage": 0.127}, {"variant": "U5G U63G", "self-cleavage": 0.0714}, {"variant": "U5G C18A", "self-cleavage": 0.37}, {"variant": "U5C G25U", "self-cleavage": 0.28}, {"variant": "U5C G25C", "self-cleavage": 0.202}, {"variant": "U5A A36C", "self-cleavage": 0.168}, {"variant": "C6G C48U", "self-cleavage": 0.0659}, {"variant": "C6A A49C", "self-cleavage": 0.112}, {"variant": "C6A A49G", "self-cleavage": 0.204}, {"variant": "U5G A71G", "self-cleavage": 0.207}, {"variant": "C4U U53C", "self-cleavage": 0.398}, {"variant": "C6A A30G", "self-cleavage": 0.131}, {"variant": "U5A C38U", "self-cleavage": 0.0767}, {"variant": "U5A A44C", "self-cleavage": 0.156}, {"variant": "U5A A44G", "self-cleavage": 0.121}, {"variant": "C4U G19U", "self-cleavage": 0.312}, {"variant": "C6A G40C", "self-cleavage": 0.109}, {"variant": "C6A G40U", "self-cleavage": 0.103}, {"variant": "C6A G40A", "self-cleavage": 0.236}, {"variant": "U5G A31C", "self-cleavage": 0.091}, {"variant": "U5G A31G", "self-cleavage": 0.17}, {"variant": "U5G C46U", "self-cleavage": 0.279}, {"variant": "U5G C46G", "self-cleavage": 0.243}, {"variant": "C6G A24C", "self-cleavage": 0.192}, {"variant": "C6G A24G", "self-cleavage": 0.337}, {"variant": "U5C C46G", "self-cleavage": 0.0996}, {"variant": "U5A U70A", "self-cleavage": 0.286}, {"variant": "U5A U70C", "self-cleavage": 0.543}, {"variant": "C6A C12G", "self-cleavage": 0.623}, {"variant": "U5A U33G", "self-cleavage": 0.131}, {"variant": "U5G A44G", "self-cleavage": 0.177}, {"variant": "U5G A44C", "self-cleavage": 0.147}, {"variant": "C6A U63G", "self-cleavage": 0.191}, {"variant": "C6A C37A", "self-cleavage": 0.236}, {"variant": "C6A C37U", "self-cleavage": 0.505}, {"variant": "U5G G19C", "self-cleavage": 0.202}, {"variant": "U5G U67A", "self-cleavage": 0.275}, {"variant": "U5G U67C", "self-cleavage": 0.117}, {"variant": "C4U U60G", "self-cleavage": 0.299}, {"variant": "U5A C48U", "self-cleavage": 0.104}, {"variant": "U5A G57A", "self-cleavage": 0.154}, {"variant": "U5A G57C", "self-cleavage": 0.231}, {"variant": "U5G U62C", "self-cleavage": 0.129}, {"variant": "U5G U62A", "self-cleavage": 0.124}, {"variant": "U5C G15A", "self-cleavage": 0.675}, {"variant": "U5A C66A", "self-cleavage": 0.247}, {"variant": "C6A A64G", "self-cleavage": 0.444}, {"variant": "U5G A36G", "self-cleavage": 0.166}, {"variant": "U5G C12U", "self-cleavage": 0.529}, {"variant": "U5G C12G", "self-cleavage": 0.239}, {"variant": "U5A A11U", "self-cleavage": 0.196}, {"variant": "C6A A36U", "self-cleavage": 0.384}, {"variant": "C6A A36G", "self-cleavage": 0.595}, {"variant": "C6A A36C", "self-cleavage": 0.393}, {"variant": "C6A G25A", "self-cleavage": 0.546}, {"variant": "U5C G21C", "self-cleavage": 0.6}, {"variant": "U5C G21U", "self-cleavage": 0.593}, {"variant": "U5C G21A", "self-cleavage": 0.62}, {"variant": "U5A G19C", "self-cleavage": 0.245}, {"variant": "U5A G19U", "self-cleavage": 0.312}, {"variant": "C4U G29U", "self-cleavage": 0.194}, {"variant": "C4U G29A", "self-cleavage": 0.107}, {"variant": "U5A G34C", "self-cleavage": 1.27}, {"variant": "U5A G34A", "self-cleavage": 0.435}, {"variant": "U5A G34U", "self-cleavage": 1.07}, {"variant": "U5G U60G", "self-cleavage": 0.353}, {"variant": "U5C G57C", "self-cleavage": 0.0878}, {"variant": "U5C G57A", "self-cleavage": 0.0835}, {"variant": "U5G A23U", "self-cleavage": 0.192}, {"variant": "U5G A23C", "self-cleavage": 0.431}, {"variant": "U5C U70A", "self-cleavage": 0.594}, {"variant": "U5C U70G", "self-cleavage": 0.664}, {"variant": "U5C A22U", "self-cleavage": 0.732}, {"variant": "U5C A22C", "self-cleavage": 0.586}, {"variant": "U5A A23G", "self-cleavage": 0.377}, {"variant": "U5G G54U", "self-cleavage": 0.228}, {"variant": "C6G A39G", "self-cleavage": 0.197}, {"variant": "U5A U14G", "self-cleavage": 0.233}, {"variant": "U5A G25U", "self-cleavage": 0.279}, {"variant": "U5C C48A", "self-cleavage": 0.122}, {"variant": "C6A G42C", "self-cleavage": 0.239}, {"variant": "U5A U52A", "self-cleavage": 0.646}, {"variant": "U5G C6G", "self-cleavage": 0.224}, {"variant": "U5G C6A", "self-cleavage": 0.321}, {"variant": "U5G C6U", "self-cleavage": 0.151}, {"variant": "C6G C37G", "self-cleavage": 0.142}, {"variant": "C6G C37A", "self-cleavage": 0.158}, {"variant": "U5G C10U", "self-cleavage": 0.317}, {"variant": "C4U U5C", "self-cleavage": 0.109}, {"variant": "C4U U5G", "self-cleavage": 0.343}, {"variant": "C4U G68C", "self-cleavage": 0.0882}, {"variant": "C4U G68A", "self-cleavage": 0.18}, {"variant": "U5C U9G", "self-cleavage": 0.187}, {"variant": "U5C U9A", "self-cleavage": 0.418}, {"variant": "U5C C18U", "self-cleavage": 0.613}, {"variant": "C4U U8A", "self-cleavage": 0.2}, {"variant": "U5G U9G", "self-cleavage": 0.147}, {"variant": "U5G U9A", "self-cleavage": 0.346}, {"variant": "U5A C12U", "self-cleavage": 0.314}, {"variant": "U5G A11G", "self-cleavage": 0.335}, {"variant": "U5G A11U", "self-cleavage": 0.0986}, {"variant": "C6G A49U", "self-cleavage": 0.107}, {"variant": "C6G A49G", "self-cleavage": 0.286}, {"variant": "U5A U58A", "self-cleavage": 0.387}, {"variant": "U5A U58C", "self-cleavage": 0.615}, {"variant": "U5C A24U", "self-cleavage": 0.229}, {"variant": "C6A G69U", "self-cleavage": 0.121}, {"variant": "C6A G69C", "self-cleavage": 0.236}]}]}
